Assay type in all cases: functional, cell-based
Substrate in series [1]: CN(Cc1cnc2nc(N)nc(N)c2n1)c1ccc(C(=O)N[C@@H](CCC(=O)O)C(=O)O)cc1
Briefly: (§1) TP_TRANSPORTER: uptake in MRP1-expressing MCF7 cells.

Substrate in series [2]: N[C@@H](CCC(=O)N[C@H](CSCCCCC/C=C/C=C1/C(=O)C=C[C@@H]1C/C=C\CCCC(=O)O)C(=O)NCC(=O)O)C(=O)O
The series is described as §1.

Substrate in series [3]: CN(Cc1cnc2nc(N)nc(N)c2n1)c1ccc(C(=O)N[C@@H](CCC(=O)O)C(=O)O)cc1
As to the kind of experiment: (§2) TP_TRANSPORTER: uptake in MRP3-expressing MCF7 cells.

Substrate in series [4]: N[C@@H](CCC(=O)N[C@H](CSCCCCC/C=C/C=C1/C(=O)C=C[C@@H]1C/C=C\CCCC(=O)O)C(=O)NCC(=O)O)C(=O)O
The series is described as §2.

B1: Multidrug resistance-associated protein 1 (Homo sapiens) (protein)
chain: MALRGFCSADGSDPLWDWNVTWNTSNPDFTKCFQNTVLVWVPCFYLWACFPFYFLYLSRHDRGYIQMTPLNKTKTALGFLLWIVCWADLFYSFWERSRGIFLAPVFLVSPTLLGITMLLATFLIQLERRKGVQSSGIMLTFWLVALVCALAILRSKIMTALKEDAQVDLFRDITFYVYFSLLLIQLVLSCFSDRSPLFSETIHDPNPCPESSASFLSRITFWWITGLIVRGYRQPLEGSDLWSLNKEDTSEQVVPVLVKNWKKECAKTRKQPVKVVYSSKDPAQPKESSKVDANEEVEALIVKSPQKEWNPSLFKVLYKTFGPYFLMSFFFKAIHDLMMFSGPQILKLLIKFVNDTKAPDWQGYFYTVLLFVTACLQTLVLHQYFHICFVSGMRIKTAVIGAVYRKALVITNSARKSSTVGEIVNLMSVDAQRFMDLATYINMIWSAPLQVILALYLLWLNLGPSVLAGVAVMVLMVPVNAVMAMKTKTYQVAHMKSKDNRIKLMNEILNGIKVLKLYAWELAFKDKVLAIRQEELKVLKKSAYLSAVGTFTWVCTPFLVALCTFAVYVTIDENNILDAQTAFVSLALFNILRFPLNILPMVISSIVQASVSLKRLRIFLSHEELEPDSIERRPVKDGGGTNSITVRNATFTWARSDPPTLNGITFSIPEGALVAVVGQVGCGKSSLLSALLAEMDKVEGHVAIKGSVAYVPQQAWIQNDSLRENILFGCQLEEPYYRSVIQACALLPDLEILPSGDRTEIGEKGVNLSGGQKQRVSLARAVYSNADIYLFDDPLSAVDAHVGKHIFENVIGPKGMLKNKTRILVTHSMSYLPQVDVIIVMSGGKISEMGSYQELLARDGAFAEFLRTYASTEQEQDAEENGVTGVSGPGKEAKQMENGMLVTDSAGKQLQRQLSSSSSYSGDISRHHNSTAELQKAEAKKEETWKLMEADKAQTGQVKLSVYWDYMKAIGLFISFLSIFLFMCNHVSALASNYWLSLWTDDPIVNGTQEHTKVRLSVYGALGISQGIAVFGYSMAVSIGGILASRCLHVDLLHSILRSPMSFFERTPSGNLVNRFSKELDTVDSMIPEVIKMFMGSLFNVIGACIVILLATPIAAIIIPPLGLIYFFVQRFYVASSRQLKRLESVSRSPVYSHFNETLLGVSVIRAFEEQERFIHQSDLKVDENQKAYYPSIVANRWLAVRLECVGNCIVLFAALFAVISRHSLSAGLVGLSVSYSLQVTTYLNWLVRMSSEMETNIVAVERLKEYSETEKEAPWQIQETAPPSSWPQVGRVEFRNYCLRYREDLDFVLRHINVTINGGEKVGIVGRTGAGKSSLTLGLFRINESAEGEIIIDGINIAKIGLHDLRFKITIIPQDPVLFSGSLRMNLDPFSQYSDEEVWTSLELAHLKDFVSALPDKLDHECAEGGENLSVGQRQLVCLARALLRKTKILVLDEATAAVDLETDDLIQSTIRTQFEDCTVLTIAHRLNTIMDYTRVIVLDKGEIQEYGAPSDLLQQRGLFYSMAKDAGLV
For the protein B1, the Km in series [1] was determined as 930 µM; in series [2] it was 1.4 µM.

B2: Multidrug resistance associated protein (Homo sapiens), Q96QA9 (protein)
chain: MDALCGSGELGSKFWDSNLSVHTENPDLTPCFQNSLLAWVPCIYLWVALPCYLLYLRHHCRGYIILSHLSKLKMVLGVLLWCVSWADLFYSFHGLVHGRAPAPVFFVTPLVVGVTMLLATLLIQYERLQGVQSSGVLIIFWFLCVVCAIVPFRSKILLAKAEGEISDPFRFTTFYIHFALVLSALILACFREKPPFFSAKNVDPNPYPETSAGFLSRLFFWWFTKMAIYGYRHPLEEKDLWSLKEEDRSQMVVQQLLEAWRKQEKQTARHKASAAPGKNASGEDEVLLGARPRPRKPSFLKALLATFGSSFLISACFKLIQDLLSFINPQLLSILIRFISNPMAPSWWGFLVAGLMFLCSMMQSLILQHYYHYIFVTGVKFRTGIMGVIYRKALVITNSVKRASTVGEIVNLMSVDAQRFMDLAPFLNLLWSAPLQIILAIYFLWQNLGPSVLAGVAFMVLLIPLNGAVAVKMRAFQVKQMKLKDSRIKLMSEILNGIKVLKLYAWEPSFLKQVEGIRQGELQLLRTAAYLHTTTTFTWMCSPFLVTLITLWVYVYVDPNNVLDAEKAFVSVSLFNILRLPLNMLPQLISNLTQASVSLKRIQQFLSQEELDPQSVERKTISPGYAITIHSGTFTWAQDLPPTLHSLDIQVPKGALVAVVGPVGCGKSSLVSALLGEMEKLEGKVHMKGSVAYVPQQAWIQNCTLQENVLFGKALNPKRYQQTLEACALLADLEMLPGGDQTEIGEKGINLSGGQRQRVSLARAVYSDADIFLLDDPLSAVDSHVAKHIFDHVIGPEGVLAGKTRVLVTHGISFLPQTDFIIVLADGQVSEMGPYPALLQRNGSFANFLCNYAPDEDQGHLEDSWTALEGAEDKEALLIEDTLSNHTDLTDNDPVTYVVQKQFMRQLSALSSDGEGQGRPVPRRHLGPSEKVQVTEAKADGALTQEEKAAIGTVELSVFWDYAKAVGLCTTLAICLLYVGQSAAAIGANVWLSAWTNDAMADSRQNNTSLRLGVYAALGILQGFLVMLAAMAMAAGGIQAARVLHQALLHNKIRSPQSFFDTTPSGRILNCFSKDIYVVDEVLAPVILMLLNSFFNAISTLVVIMASTPLFTVVILPLAVLYTLVQRFYAATSRQLKRLESVSRSPIYSHFSETVTGASVIRAYNRSRDFEIISDTKVDANQRSCYPYIISNRWLSIGVEFVGNCVVLFAALFAVIGRSSLNPGLVGLSVSYSLQVTFALNWMIRMMSDLESNIVAVERVKEYSKTETEAPWVVEGSRPPEGWPPRGEVEFRNYSVRYRPGLDLVLRDLSLHVHGGEKVGIVGRTGAGKSSMTLCLFRILEAAKGEIRIDGLNVADIGDPILFSGTLRMNLDPFGSYSEEDIWWALELSHLHTFVSSQPAGLDFQCSEGGENLSVGQRQLVCLARALLRKSRILVLDEATAAIDLETDNLIQATIRTQFDTCTVLTIAHRLNTIMDYTRVLVLDKGVVAEFDSPANLIAARGIFYGMARDAGLA
In the case of B2, the Km in series [3] was 910 µM; in series [4] it was 2.9 µM.

By Km is commonly meant the concentration of substrate that gives half-maximal velocity.

The values above are taken from ChEMBL document CHEMBL2074012, “Multidrug resistance protein (MRP) 1 and MRP3 attenuate cytotoxic and transactivating effects of the cyclopentenone prostaglandin, 15-deoxy-Delta(12,14)prostaglandin J2 in MCF7 breast cancer cells” (Biochemistry, 2003).
